Data on 38 substances can be found in patent publication US20240150447A1.

In the first experiment the target is human FcRn and human B2M (beta-2-microglobulin) expressed on MDCK II cells (human) (UniProt P55899). Put plainly: cell-based or functional assay.
Sequence of human FcRn and human B2M (beta-2-microglobulin) expressed on MDCK II cells (human) (P55899 24-365 limits assumed, chain 1 of 2): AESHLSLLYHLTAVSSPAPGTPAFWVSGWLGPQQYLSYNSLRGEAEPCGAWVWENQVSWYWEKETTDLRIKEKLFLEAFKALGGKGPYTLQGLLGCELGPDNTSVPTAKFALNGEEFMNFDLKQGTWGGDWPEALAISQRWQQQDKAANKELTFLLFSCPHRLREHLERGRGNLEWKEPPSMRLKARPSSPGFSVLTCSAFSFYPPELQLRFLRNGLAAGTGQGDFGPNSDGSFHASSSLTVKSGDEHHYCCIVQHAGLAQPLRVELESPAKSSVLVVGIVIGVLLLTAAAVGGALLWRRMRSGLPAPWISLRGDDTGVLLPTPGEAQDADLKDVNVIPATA
Sequence of human FcRn and human B2M (beta-2-microglobulin) expressed on MDCK II cells (human) (b2m, as listed by the source limits assumed, chain 2 of 2): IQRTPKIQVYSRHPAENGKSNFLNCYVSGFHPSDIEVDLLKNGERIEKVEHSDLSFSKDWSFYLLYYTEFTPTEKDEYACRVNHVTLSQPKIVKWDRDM
As to “anti-O4 hIgG1 M252Y/T256A/V308P/N434W (antibody)”, the Transcytosis Normalized to IAHA at pH 6.0 (ratio to IAHA) stood at 190.

Turning to “anti-O4 hIgG1 M252Y/T256A/V308P/N434Y (antibody)”, the Transcytosis Normalized to IAHA at pH 6.0 (ratio to IAHA) amounted to 193. Same read-out and setting: with “anti-O4 hIgG1 M252Y/T256D/V308P/N434W (antibody)” the figure was 153. On the same count and under the same terms, under “anti-O4 hIgG1 M252Y/T256E/V308P/N434F (antibody)” stands 182; under “anti-O4 hIgG1 M252Y/T256E/V308P/N434H (antibody)”, 155. The same measure, in the same setting: with “anti-O4 hIgG1 M252Y/T256E/V308P/N434W (antibody)” the figure was 154; with “anti-O4 hIgG1 M252Y/T256E/V308P/N434Y (antibody)”, 124; with “anti-O4 hIgG1 M252Y/T256F/V308P/N434F (antibody)”, 60.4. As to “anti-O4 hIgG1 M252Y/T256F/V308P/N434Y (antibody)”, the Transcytosis Normalized to IAHA at pH 6.0 (ratio to IAHA) stood at 193. Same read-out and setting: under “anti-O4 hIgG1 M252Y/T256G/V308P/N434Y (antibody)” stands 130. Same read-out and setting: with “anti-O4 hIgG1 M252Y/T256H/V308P/N434F (antibody)” the figure was 192. The same measure, in the same setting: under “anti-O4 hIgG1 M252Y/T256I/V308P/N434Y (antibody)” stands 126; under “anti-O4 hIgG1 M252Y/T256L/V308P/N434W (antibody)”, 217; under “anti-O4 hIgG1 M252Y/T256L/V308P/N434Y (antibody)”, 303.

On to “anti-O4 hIgG1 M252Y/T256N/V308P/N434Y (antibody)”, for which the Transcytosis Normalized to IAHA at pH 6.0 (ratio to IAHA) worked out at 174. Take “anti-O4 hIgG1 M252Y/T256P/V308P/N434W (antibody)”: the Transcytosis Normalized to IAHA at pH 6.0 (ratio to IAHA) was determined as 208. With “anti-O4 hIgG1 M252Y/T256P/V308P/N434Y (antibody)”, the Transcytosis Normalized to IAHA at pH 6.0 (ratio to IAHA) was 132.

“anti-O4 hIgG1 M252Y/T256Q/V308P/N434W (antibody)”: the Transcytosis Normalized to IAHA at pH 6.0 (ratio to IAHA) stood at 156. Same read-out and setting: under “anti-O4 hIgG1 M252Y/T256Q/V308P/N434Y (antibody)” stands 286; under “anti-O4 hIgG1 M252Y/T256R/V308P/N434W (antibody)”, 162.

“anti-O4 hIgG1 M252Y/T256R/V308P/N434Y (antibody)”: the Transcytosis Normalized to IAHA at pH 6.0 (ratio to IAHA) stood at 655. In the case of “anti-O4 hIgG1 M252Y/T256S/V308P/N434W (antibody)”, the Transcytosis Normalized to IAHA at pH 6.0 (ratio to IAHA) came out at 159.

In the case of “anti-O4 hIgG1 M252Y/T256S/V308P/N434Y (antibody)”, the Transcytosis Normalized to IAHA at pH 6.0 (ratio to IAHA) worked out at 156.

As for “anti-O4 hIgG1 M252Y/T256V/V308P/N434F (antibody)”, the Transcytosis Normalized to IAHA at pH 6.0 (ratio to IAHA) was determined as 98.9.

Regarding “anti-O4 hIgG1 M252Y/T256V/V308P/N434W (antibody)”, the Transcytosis Normalized to IAHA at pH 6.0 (ratio to IAHA) is 209.

For the substance “anti-O4 hIgG1 M252Y/T256V/V308P/N434Y (antibody)”, the Transcytosis Normalized to IAHA at pH 6.0 (ratio to IAHA) was 183. Still for that read-out and setting: with “anti-O4 hIgG1 M252Y/T256W/V308P/N434W (antibody)” the figure was 147. The same measure, in the same setting: with “anti-O4 hIgG1 M252Y/T256W/V308P/N434Y (antibody)” the figure was 588; with “anti-O4 hIgG1 M252Y/T256Y/V308P/N434Y (antibody)”, 8.35; with anti-O4 hIgG1 M252Y/V308P (antibody), 281. Still for that read-out and setting: under “anti-O4 hIgG1 WT (wild type Fc) (antibody)” stands 122.

Another experiment deals with human FcRn protein (human) (UniProt P55899). Put plainly: SPR, Ab on Protein L chip, hFcRn in flow, pH 7.4.
Sequence of human FcRn protein (human) (P55899 24-297 limits assumed, chain 1 of 2): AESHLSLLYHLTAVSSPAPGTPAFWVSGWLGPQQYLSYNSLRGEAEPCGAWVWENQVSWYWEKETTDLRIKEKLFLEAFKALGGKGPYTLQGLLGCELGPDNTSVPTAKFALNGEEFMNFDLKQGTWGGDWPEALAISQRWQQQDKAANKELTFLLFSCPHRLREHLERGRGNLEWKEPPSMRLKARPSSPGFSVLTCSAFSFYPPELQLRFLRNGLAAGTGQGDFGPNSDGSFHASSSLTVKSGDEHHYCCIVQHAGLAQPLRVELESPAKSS
Sequence of human FcRn protein (human) (chain, as listed by the source limits assumed, chain 2 of 2): as the sequence (b2m, as listed by the source limits assumed, chain 2 of 2) above
In turn, “hIgG1 M252Y/N286E/V308P/M428I/N434Y, O4 VH with Ab6 light chain (antibody)” gave a Kd of 1030 nM, a koff of 1.03 s⁻¹ and a kon of 1e+06 M⁻¹ s⁻¹. Substance “hIgG1 M252Y/N434Y/Y436V, O4 VH with Ab6 light chain (antibody)” came in with a Kd of 25700 nM, a koff of 1.14 s⁻¹ and a kon of 44300 M⁻¹ s⁻¹. For the substance “hIgG1 M252Y/S254T/T256E/V308P, O4 VH with Ab6 light chain (antibody)”, the Kd stood at 975 nM, the koff was 1.96 s⁻¹ and the kon amounted to 2.01e+06 M⁻¹ s⁻¹. The matching figures for “hIgG1 M252Y/S254T/T256E/V308P/N434W, O4 VH with Ab6 light chain (antibody)”: 122 nM, 0.00101 s⁻¹ and 8320 M⁻¹ s⁻¹.

Substance “hIgG1 M252Y/S254T/V308P, O4 VH with Ab6 light chain (antibody)” showed a Kd of 76700 nM, a koff of 1.13 s⁻¹ and a kon of 14700 M⁻¹ s⁻¹. “hIgG1 M252Y/T256K/V308P/N434W, O4 VH with Ab6 light chain (antibody)” registered a Kd of 239 nM. For the substance “hIgG1 M252Y/V308P, O4 VH with Ab6 light chain (antibody)”, the dissociation constant Kd is 51.8 nM, the dissociation rate constant (koff) was 0.00221 s⁻¹ and the kon is 42600 M⁻¹ s⁻¹.

Another experiment shares this target. Description: SPR, Ab on Protein L chip, hFcRn in flow, pH 6.0.
“hIgG1 M252Y/N286E/V308P/M428I/N434Y, O4 VH with Ab6 light chain (antibody)” yielded a Kd of 0.109 nM, a koff of 0.000201 s⁻¹ and a kon of 1.84e+06 M⁻¹ s⁻¹. In the same order, the values of “hIgG1 M252Y/N434Y/Y436V, O4 VH with Ab6 light chain (antibody)” are 5.48 nM, 0.00756 s⁻¹ and 1.38e+06 M⁻¹ s⁻¹. The matching figures for “hIgG1 M252Y/S254T/T256E/V308P, O4 VH with Ab6 light chain (antibody)”: 21.5 nM, 0.0139 s⁻¹ and 648000 M⁻¹ s⁻¹. In the same order, the values of “hIgG1 M252Y/S254T/T256E/V308P/N434W, O4 VH with Ab6 light chain (antibody)” are 0.471 nM, 0.000795 s⁻¹ and 1.69e+06 M⁻¹ s⁻¹. Take “hIgG1 M252Y/S254T/V308P, O4 VH with Ab6 light chain (antibody)”: the Kd turned out to be 31.7 nM, the koff was 0.0177 s⁻¹ and the kon is 557000 M⁻¹ s⁻¹. On to “hIgG1 M252Y/T256K/V308P/N434W, O4 VH with Ab6 light chain (antibody)”, for which the Kd was determined as 1.31 nM and the koff came to 0.00143 s⁻¹. In turn, “hIgG1 M252Y/V308P, O4 VH with Ab6 light chain (antibody)” registered a Kd of 37.4 nM, a koff of 0.0279 s⁻¹ and a kon of 745000 M⁻¹ s⁻¹.
